Laboratory results reported in the supplement of paper PMC9112550, “Optimization of the antimicrobial peptide Bac7 by deep mutational scanning” (BMC Biology, 2022).

tested on: Escherichia coli TOP10; assay: shrunken log2 fold change of peptide-encoding DNA abundance (4.5 h post-induction vs induction); higher = less antimicrobial activity (less host growth inhibition); settings: time post-induction: 4.5 h; library: site-saturation at positions 5, 18, 19, 20
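Also: peptides expressed intracellularly from a pBAD plasmid library in pooled LB shake-flask culture, induced with 0.3% L-arabinose, DNA abundance read by NGS, three biological replicates, DESeq2 with apeglm shrinkage.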

Sequence | shrunken log2 fold change
RRIRWRPPRLPRPRPRPCPVPRP | -0.249
RRIRWRPPRLPRPRPRPCPYPRP | -0.271
RRIRWRPPRLPRPRPRPCRSPRP | 0.0427
RRIRWRPPRLPRPRPRPCSWPRP | 0.0533
RRIRWRPPRLPRPRPRPCVIPRP | -0.059
RRIRWRPPRLPRPRPRPDCLPRP | 0.166
RRIRWRPPRLPRPRPRPDDKPRP | -0.139
RRIRWRPPRLPRPRPRPDERPRP | -0.00133
RRIRWRPPRLPRPRPRPDFTPRP | 0.15
RRIRWRPPRLPRPRPRPDGIPRP | 0.151
RRIRWRPPRLPRPRPRPDGLPRP | 0.393
RRIRWRPPRLPRPRPRPDHCPRP | -0.00992
RRIRWRPPRLPRPRPRPDHDPRP | 0.0812
RRIRWRPPRLPRPRPRPDHLPRP | 0.08
RRIRWRPPRLPRPRPRPDKFPRP | -0.427
RRIRWRPPRLPRPRPRPDLAPRP | 0.953
RRIRWRPPRLPRPRPRPDMAPRP | 0.204
RRIRWRPPRLPRPRPRPDMWPRP | 0.228
RRIRWRPPRLPRPRPRPDNTPRP | -0.25
RRIRWRPPRLPRPRPRPDPIPRP | -0.242
RRIRWRPPRLPRPRPRPDQRPRP | 0.098
RRIRWRPPRLPRPRPRPDRIPRP | 0.082
RRIRWRPPRLPRPRPRPDRMPRP | 0.0163
RRIRWRPPRLPRPRPRPDRWPRP | 0.827
RRIRWRPPRLPRPRPRPDSHPRP | -0.126

Sequence | shrunken log2 fold change
RRIRWRPPRLPRPRPRPDTCPRP | -0.0059
RRIRWRPPRLPRPRPRPDTKPRP | 0.00587
RRIRWRPPRLPRPRPRPDTPPRP | 0.126
RRIRWRPPRLPRPRPRPDVKPRP | -0.26
RRIRWRPPRLPRPRPRPDVPPRP | -0.177
RRIRWRPPRLPRPRPRPDVTPRP | 0.0084
RRIRWRPPRLPRPRPRPDWHPRP | -0.0337
RRIRWRPPRLPRPRPRPDWWPRP | 0.0352
RRIRWRPPRLPRPRPRPDWYPRP | -0.268
RRIRWRPPRLPRPRPRPDYIPRP | -0.00749
RRIRWRPPRLPRPRPRPDYTPRP | -0.0601
RRIRWRPPRLPRPRPRPEAMPRP | 0.142
RRIRWRPPRLPRPRPRPEDQPRP | 0.475
RRIRWRPPRLPRPRPRPEECPRP | 0.158
RRIRWRPPRLPRPRPRPEEKPRP | 0.584
RRIRWRPPRLPRPRPRPEEMPRP | 0.013
RRIRWRPPRLPRPRPRPEENPRP | -0.0122
RRIRWRPPRLPRPRPRPEFQPRP | 0.118
RRIRWRPPRLPRPRPRPEGHPRP | 0.792
RRIRWRPPRLPRPRPRPEHKPRP | 0.278
RRIRWRPPRLPRPRPRPEHVPRP | 0.0199
RRIRWRPPRLPRPRPRPEITPRP | 0.437
RRIRWRPPRLPRPRPRPEPIPRP | 0.204
RRIRWRPPRLPRPRPRPEQVPRP | 0.21
RRIRWRPPRLPRPRPRPEQWPRP | 0.724

Sequence | shrunken log2 fold change
RRIRWRPPRLPRPRPRPEQYPRP | -0.171
RRIRWRPPRLPRPRPRPERCPRP | 0.449
RRIRWRPPRLPRPRPRPERNPRP | -0.117
RRIRWRPPRLPRPRPRPERSPRP | 0.317
RRIRWRPPRLPRPRPRPESHPRP | 0.189
RRIRWRPPRLPRPRPRPETWPRP | 0.502
RRIRWRPPRLPRPRPRPEVFPRP | 1.35
RRIRWRPPRLPRPRPRPEWRPRP | 0.439
RRIRWRPPRLPRPRPRPFAWPRP | 0.179
RRIRWRPPRLPRPRPRPFCHPRP | -0.0562
RRIRWRPPRLPRPRPRPFDQPRP | -0.102
RRIRWRPPRLPRPRPRPFFHPRP | -0.194
RRIRWRPPRLPRPRPRPFHQPRP | -0.259
RRIRWRPPRLPRPRPRPFHTPRP | -0.171
RRIRWRPPRLPRPRPRPFIFPRP | -0.0639
RRIRWRPPRLPRPRPRPFITPRP | -0.167
RRIRWRPPRLPRPRPRPFKGPRP | -0.0135
RRIRWRPPRLPRPRPRPFKQPRP | -0.104
RRIRWRPPRLPRPRPRPFLKPRP | -0.4
RRIRWRPPRLPRPRPRPFMLPRP | -0.174
RRIRWRPPRLPRPRPRPFNSPRP | -0.207
RRIRWRPPRLPRPRPRPFQYPRP | -0.199
RRIRWRPPRLPRPRPRPFRYPRP | -0.501
RRIRWRPPRLPRPRPRPFSVPRP | -0.159
RRIRWRPPRLPRPRPRPFVPPRP | -0.266

Sequence | shrunken log2 fold change
RRIRWRPPRLPRPRPRPFVQPRP | -0.184
RRIRWRPPRLPRPRPRPFYHPRP | -0.0855
RRIRWRPPRLPRPRPRPGCHPRP | 0.253
RRIRWRPPRLPRPRPRPGCLPRP | 0.792
RRIRWRPPRLPRPRPRPGCWPRP | 1.09
RRIRWRPPRLPRPRPRPGDHPRP | -0.0565
RRIRWRPPRLPRPRPRPGFFPRP | 0.26
RRIRWRPPRLPRPRPRPGFKPRP | -0.143
RRIRWRPPRLPRPRPRPGFPPRP | -0.0683
RRIRWRPPRLPRPRPRPGGEPRP | 0.107
RRIRWRPPRLPRPRPRPGMQPRP | 0.775
RRIRWRPPRLPRPRPRPGQEPRP | 0.617
RRIRWRPPRLPRPRPRPGQQPRP | -0.17
RRIRWRPPRLPRPRPRPGTAPRP | 0.392
RRIRWRPPRLPRPRPRPGTFPRP | -0.0686
RRIRWRPPRLPRPRPRPGTPPRP | 0.356
RRIRWRPPRLPRPRPRPGVKPRP | 0.505
RRIRWRPPRLPRPRPRPGYNPRP | -0.0807
RRIRWRPPRLPRPRPRPGYSPRP | -0.191
RRIRWRPPRLPRPRPRPHCNPRP | -0.465
RRIRWRPPRLPRPRPRPHCRPRP | 0.0889
RRIRWRPPRLPRPRPRPHDCPRP | -0.00141
RRIRWRPPRLPRPRPRPHEAPRP | 0.273
RRIRWRPPRLPRPRPRPHFPPRP | 0.064
RRIRWRPPRLPRPRPRPHFWPRP | 0.27

Sequence | shrunken log2 fold change
RRIRWRPPRLPRPRPRPHFYPRP | -0.117
RRIRWRPPRLPRPRPRPHGGPRP | -0.0606
RRIRWRPPRLPRPRPRPHHDPRP | -0.708
RRIRWRPPRLPRPRPRPHHGPRP | -0.234
RRIRWRPPRLPRPRPRPHHKPRP | -0.23
RRIRWRPPRLPRPRPRPHHTPRP | -0.313
RRIRWRPPRLPRPRPRPHILPRP | -0.358
RRIRWRPPRLPRPRPRPHIPPRP | -0.227
RRIRWRPPRLPRPRPRPHKMPRP | -0.146
RRIRWRPPRLPRPRPRPHLAPRP | 0.265
RRIRWRPPRLPRPRPRPHLGPRP | 0.14
RRIRWRPPRLPRPRPRPHLKPRP | -0.0706
RRIRWRPPRLPRPRPRPHNMPRP | -0.623
RRIRWRPPRLPRPRPRPHPEPRP | 0.275
RRIRWRPPRLPRPRPRPHQEPRP | 0.0101
RRIRWRPPRLPRPRPRPHQNPRP | -0.00311
RRIRWRPPRLPRPRPRPHRRPRP | -0.0988
RRIRWRPPRLPRPRPRPHSDPRP | 0.0062
RRIRWRPPRLPRPRPRPHSVPRP | 0.0489
RRIRWRPPRLPRPRPRPHTCPRP | -0.00188
RRIRWRPPRLPRPRPRPHTIPRP | -0.533
RRIRWRPPRLPRPRPRPHTMPRP | -0.00694
RRIRWRPPRLPRPRPRPHVQPRP | -0.209
RRIRWRPPRLPRPRPRPHWHPRP | -0.0347
RRIRWRPPRLPRPRPRPHWLPRP | 0.243

Sequence | shrunken log2 fold change
RRIRWRPPRLPRPRPRPHWMPRP | 0.289
RRIRWRPPRLPRPRPRPHYAPRP | -0.0597
RRIRWRPPRLPRPRPRPHYFPRP | -0.087
RRIRWRPPRLPRPRPRPHYGPRP | -0.0711
RRIRWRPPRLPRPRPRPIEDPRP | -0.00101
RRIRWRPPRLPRPRPRPIEIPRP | -0.101
RRIRWRPPRLPRPRPRPIELPRP | -0.0796
RRIRWRPPRLPRPRPRPIENPRP | 0.0363
RRIRWRPPRLPRPRPRPIFGPRP | 0.0623
RRIRWRPPRLPRPRPRPIHHPRP | -0.332
RRIRWRPPRLPRPRPRPIHMPRP | -0.246
RRIRWRPPRLPRPRPRPIHPPRP | -0.117
RRIRWRPPRLPRPRPRPINCPRP | -0.889
RRIRWRPPRLPRPRPRPIQAPRP | -0.0237
RRIRWRPPRLPRPRPRPIQGPRP | 0.265
RRIRWRPPRLPRPRPRPIQQPRP | 0.0331
RRIRWRPPRLPRPRPRPIREPRP | 0.411
RRIRWRPPRLPRPRPRPISEPRP | 0.00628
RRIRWRPPRLPRPRPRPITAPRP | 0.0334
RRIRWRPPRLPRPRPRPIVLPRP | -0.628
RRIRWRPPRLPRPRPRPIWSPRP | 0.629
RRIRWRPPRLPRPRPRPKAEPRP | -0.015
RRIRWRPPRLPRPRPRPKAYPRP | -0.12
RRIRWRPPRLPRPRPRPKCGPRP | 0.594
RRIRWRPPRLPRPRPRPKEVPRP | 0.0717
